From paper PMC3168705 (The FEBS journal, 2011)

Target: McTnI_(29–211), mouse cardiac TnI with the NH2-terminal extension removed (mouse, UniProt P48787 29-211)
Assay: ELISA

Chain of McTnI_(29–211), mouse cardiac TnI with the NH2-terminal extension removed (P48787 29-211): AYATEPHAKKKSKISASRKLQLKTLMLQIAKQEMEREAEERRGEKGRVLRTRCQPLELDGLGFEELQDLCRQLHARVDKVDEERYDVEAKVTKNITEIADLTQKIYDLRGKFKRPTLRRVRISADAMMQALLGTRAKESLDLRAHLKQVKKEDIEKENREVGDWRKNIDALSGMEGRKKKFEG

B1: chicken fast TnC (natural protein)
chain: not shown
binding result: binds
